Target: T1, Fas-Fc (Mus musculus, UniProt P25446)
T1 construct: purchased R&D
T1 sequence (P25446 22-169 limits assumed): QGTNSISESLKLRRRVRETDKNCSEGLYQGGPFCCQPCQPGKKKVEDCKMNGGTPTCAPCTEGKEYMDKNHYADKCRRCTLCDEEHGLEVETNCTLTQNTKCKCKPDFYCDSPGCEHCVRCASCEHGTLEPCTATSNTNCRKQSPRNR
Assay: ELISA of Fas-Fc binding to coated synthetic polypeptides
Details: peptides coated at 1 μg/ml, increasing Fas-Fc, OD 450 nm
Text: The Met alpha but not beta chain binds to Fas (FIG. 1a). Various regions of the mouse Met cDNA corresponding to the alpha chain or the extra-cellular portion of the Met beta chain were cloned into expression vectors (pCRT7 TOPO/AlphaMet or pCRT7 TOPO/beta chain) and subjected to in vitro transcription/translation by a rabbit reticolucyte lysate translation system. Empty vector was included in each experiment as a control. The expressed proteins were labeled with ^35S-Methionine. Pull down assays were performed using Fas-Fc, a chimeric molecule which lacks the interacellular cytoplasmic domain and protein-A agarose as described in Wang et al., 2002. FIG. 1b is a schematic presentation of the Met alpha chain and its mutant version used to map the region interacting with Fas. The C-terminus of each construct contains a hexa-Histidine tag for ease of detection. Start cordon ATG was added to the N-terminally truncated constructs. The YLGA (SEQ ID NO:1) motif mutation was prepared by PCR, in which YLGA (SEQ ID NO:1) was replaced by DHER (SEQ ID NO:24). […] In vitro translated ^35S-methionine labeled truncated/mutated AlphaMet proteins were pulled down with 2 μg of Fas-Fc or the same amount of IgG. Lane 1: 10% of AlphaMet input; Lane 2: AlphaMet with IgG control; Lanes 3 to 8: pull down of various truncated AlphaMet proteins; N-terminal 1-106 residues; C-terminal truncated, residues 1-210; alpha chain, residues 1-306; alpha chain with transmembrane domain, 1-338; N-terminally truncated alpha chain, residues 100-306; and N-terminally truncated with addition of the transmembrane domain 100-338, respectively. FIG. 1d depicts the amino acid sequence alignment of alpha chain with FasL, determined using the CLUSTALW, SIM+LALNVIEW, and ALIGN at ExPASy Proteomic Tools (available on the internet at us.expresly.org/tools). The numbers indicate the amino acid residues of the indicated protein. […] Recombinant His-tagged AlphaMet or its mutant version were expressed in E. coli, purified with chromatography, and subjected to Fas-Fc (lanes labeled Fas) or control IgG pull down experiments, and detected by Western blot using anti-His antibody that recognizes C-terminal His. This antibody also recognizes the Fas-Fc which is also tagged at the C-terminus by His. […] Purified recombinant AlphaMet protein (approximately 10 μg) was mixed with Hepa 1-6 cells or Jurkat cell lysates and subjected to immunoprecicitation using anti-Fas antibody or control IgG followed by Western blot using anti His-tag antibody as a probe. […] Peptides (1 μg/ml) were coated into the 96-well microtiter plates in triplicate and after blocking with 1% BSA, increasing amounts of Fas-Fc were added as indicated. The control peptide was a scrambled 13 mer. After washing the wells, anti-human […]-HRP conjugates (1:20,000) were added to detect the bound Fas-Fc using TMD dye and the OD value was determined at a wavelength of 450 nm. One-way ANOVA was carried out for determination of statistical significance.
ELISA. Synthesized polypeptides (Genemed Synthesis, Inc. South San Francisco, Calif.) were dissolved in water and diluted in the coating buffer (0.05M of Sodium Carbonate, 0.02% of Sodium Azide, pH 9.6) to a final concentration of 1 ug/ml. One hundred microliter aliquots were added to coat each well of a 96-well microtitre plate. The coated plates were then washed with PBS-Tween (0.5%) three times. The plates were blotted and dried by tapping upside down on tissue paper. They were blocked using 200 μl of 1% of BSA in PBS solution followed by a 2 hour incubation. Plates were washed another three times, Fas-Fc was added, and the plates were incubated for another 2 hours. The plates were washed three times and anti-human IgM Fc HRP conjugates were included at a final concentration of 1:20,000, and incubated for 1 hour. Plates were washed three times again and ready-to-use TMD was added and incubated for 30 minutes. The color reaction was stopped by 2M of Sulfuric Acid. […]

| Substance | Fas binding by ELISA |
| --- | --- |
| HHIYLGATNYIY [12 mer] | bound Fas strongly |
| YLGA [YLGA 4 mer] | lower compared to the YLGA 12 mer |
